Results from patent US7115260B2, “Interleukin-1β converting enzyme like apoptotic protease-6” (Human Genome Sciences, Inc., priority 1996, dated 2006).
Peptide text beside a SMILES is read from it. * marks the point of attachment. Cbz = O=C(OCc1ccccc1)*; CH2F = FC*

Assays:
ICE LAP-6 = biological target: T1, ICE LAP-6 (Homo sapiens, UniProt P55211, A28V/A96G/Q221R); test: Inhibition of ICE LAP-6 induced apoptosis in transfected MCF7 cells; assay type: cell-based; details: MCF7 cells transfected with ICE LAP-6-flag
T1 construct: transiently transfected with an expression vector encoding the full-length ICE LAP-6 protein (ICE LAP-6-flag); expressed in transfected cells; host or cells: MCF7 breast carcinoma cells, pcDNA3 vector
T1 sequence (P55211 1-416 A28V/A96G/Q221R): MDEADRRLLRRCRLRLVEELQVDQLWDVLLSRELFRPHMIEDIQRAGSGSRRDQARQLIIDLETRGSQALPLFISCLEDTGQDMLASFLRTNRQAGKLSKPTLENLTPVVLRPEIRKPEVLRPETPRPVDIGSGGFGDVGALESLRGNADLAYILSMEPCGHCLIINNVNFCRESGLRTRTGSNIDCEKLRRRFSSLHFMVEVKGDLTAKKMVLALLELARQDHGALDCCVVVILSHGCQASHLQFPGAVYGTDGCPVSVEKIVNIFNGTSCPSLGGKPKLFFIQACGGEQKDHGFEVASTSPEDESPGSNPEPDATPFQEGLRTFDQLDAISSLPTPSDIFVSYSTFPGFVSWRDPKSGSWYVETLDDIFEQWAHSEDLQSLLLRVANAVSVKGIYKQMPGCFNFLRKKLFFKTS
Description: (§1) MCF7 breast carcinoma cells were transiently transfected as described previously (Chinnaiyan, A. M., et al (1995) Cell 81, 505–512). Briefly, 2.5×10^5 MCF7 cells were transfected with 0.25 μg of the reporter plasmid pCMV β-galactosidase plus 1 μg of test plasmid in 6-well tissue culture dishes using lipofectamine as per manufacturer's instructions. The transfection was carried out in 1 ml of Opti-MEM Minimal Media (GMBCO-BRL) and after 5 hours, 1 ml of serum-containing growth media was added. Two days later, the cells were fixed with 0.5% glutaraldehyde and stained with X-gal for 4 hours. Cells were visualized by phase-contrast microscopy. At least 300 β-galactosidase-positive cells were counted for each transfection (n=3) and identified as apoptotic or nonapoptotic based on morphological alterations typical of adherent cells undergoing apoptosis including becoming rounded, condensed, and detaching from the dish (Cohen, J. J. (1993) Immunology Today 14, 126–130). […] Samples were analyzed by immunoblotting with anti-PARP monoclonal antibody C-2-10 as described previously Tewari, M., et al. (1995) Cell 81, 801–809).
(§2) To study the functional role of ICE LAP-6, MCF7 breast carcinoma cells were transiently transfected with an expression vector encoding the full-length ICE LAP-6 protein (ICE LAP-6-flag) and subsequently assessed for apoptotic features. […]

pro-Yama = biological target: T2, pro-Yama (Homo sapiens, UniProt P42574); test: Proteolytic activation of in vitro-translated pro-Yama by granzyme B; assay type: biochemical; details: purified granzyme B
T2 construct: His6; made in house; host or cells: cell-free in vitro transcription/translation, TNT kit (Promega)
T2 sequence (P42574 1-277): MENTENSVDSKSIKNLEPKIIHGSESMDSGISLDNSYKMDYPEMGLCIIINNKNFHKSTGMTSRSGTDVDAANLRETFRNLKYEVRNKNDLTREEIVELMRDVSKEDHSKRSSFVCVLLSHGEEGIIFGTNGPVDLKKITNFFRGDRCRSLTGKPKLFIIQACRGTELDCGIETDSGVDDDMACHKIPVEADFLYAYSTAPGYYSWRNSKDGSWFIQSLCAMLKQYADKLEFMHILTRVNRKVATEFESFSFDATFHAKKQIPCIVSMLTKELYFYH

pro-ICE LAP-6 = biological target: T3, pro-ICE LAP-6 (Homo sapiens, UniProt P55211, A28V/A96G/Q221R); test: Proteolytic activation of in vitro-translated pro-ICE LAP-6 by granzyme B; assay type: biochemical; details: 20 pmole granzyme B, 4 hours at 37° C., SDS-PAGE
T3 construct: made in house; host or cells: cell-free in vitro transcription/translation, TNT kit (Promega)
T3 sequence (P55211 1-416 A28V/A96G/Q221R): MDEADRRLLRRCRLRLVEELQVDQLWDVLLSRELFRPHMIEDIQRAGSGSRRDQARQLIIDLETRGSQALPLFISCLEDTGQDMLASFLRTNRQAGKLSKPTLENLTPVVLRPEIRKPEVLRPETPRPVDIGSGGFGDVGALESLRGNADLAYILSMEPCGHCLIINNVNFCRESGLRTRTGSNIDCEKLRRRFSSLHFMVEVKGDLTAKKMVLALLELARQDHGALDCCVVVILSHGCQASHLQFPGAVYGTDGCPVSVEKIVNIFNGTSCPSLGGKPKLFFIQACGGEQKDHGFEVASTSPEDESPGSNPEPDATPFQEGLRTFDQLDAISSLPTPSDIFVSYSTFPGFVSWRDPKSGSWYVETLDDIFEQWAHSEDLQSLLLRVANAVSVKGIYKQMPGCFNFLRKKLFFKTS

PARP = PARP cleavage by granzyme B-processed protease (anti-PARP immunoblot); assay type: biochemical; details: after granzyme B processing, anti-GraB added, 2 hours, 37° C.
Description: as §1, with “801–809). […]” for “801–809).”

[1] = tested on: MCF7 breast carcinoma cells; test: Apoptosis assay in transiently transfected MCF7 cells; assay type: cell-based; details: transient transfection of expression vector, morphology of β-galactosidase-positive cells, two days
Description: as §1, §2

Row | Molecule | ability to cleave PARP (PARP) | induction of apoptosis / cell death on overexpression [1] | also measured
1 | COC(=O)C[C@H](NC(=O)[C@H](C)NC(=O)[C@@H](NC(=O)OCc1ccccc1)C(C)C)C(=O)CF [z-VAD fmk] (Cbz-Val-Ala-Asp(OMe)-CH2F) |  |  | inhibition of ICE LAP-6 induced apoptosis (ICE LAP-6): inhibited
2 | granzyme B: secreted serine protease, effector of cytotoxic T cell-mediated apoptosis |  |  | activation of Yama in vitro (pro-Yama): directly activates; proteolytic processing of pro-ICE LAP-6 (pro-ICE LAP-6): proteolytically processed into 3 fragments
3 | ICE LAP-6: novel human member of the ICE/ced-3 family of cysteine proteases, active site QACGG, predicted 45.8 kD (protein) MDEADRRLLRRCRLRLVEELQVDQLWDVLLSRELFRPHMIEDIQRAGSGSRRDQARQLIIDLETRGSQALPLFISCLEDTGQDMLASFLRTNRQAGKLSKPTLENLTPVVLRPEIRKPEVLRPETPRPVDIGSGGFGDVGALESLRGNADLAYILSMEPCGHCLIINNVNFCRESGLRTRTGSNIDCEKLRRRFSSLHFMVEVKGDLTAKKMVLALLELARQDHGALDCCVVVILSHGCQASHLQFPGAVYGTDGCPVSVEKIVNIFNGTSCPSLGGKPKLFFIQACGGEQKDHGFEVASTSPEDESPGSNPEPDATPFQEGLRTFDQLDAISSLPTPSDIFVSYSTFPGFVSWRDPKSGSWYVETLDDIFEQWAHSEDLQSLLLRVANAVSVKGIYKQMPGCFNFLRKKLFFKTSHHHHHH | active | caused cell death | 
4 | ICE LAP-6 mt: mutant version of ICE LAP-6 with the catalytic cysteine residue (Cys286) altered to an alanine (protein, UniProt P55211 1-416, looked up, variant C287A) MDEADRRLLRRCRLRLVEELQVDQLWDALLSRELFRPHMIEDIQRAGSGSRRDQARQLIIDLETRGSQALPLFISCLEDTGQDMLASFLRTNRQAAKLSKPTLENLTPVVLRPEIRKPEVLRPETPRPVDIGSGGFGDVGALESLRGNADLAYILSMEPCGHCLIINNVNFCRESGLRTRTGSNIDCEKLRRRFSSLHFMVEVKGDLTAKKMVLALLELAQQDHGALDCCVVVILSHGCQASHLQFPGAVYGTDGCPVSVEKIVNIFNGTSCPSLGGKPKLFFIQAAGGEQKDHGFEVASTSPEDESPGSNPEPDATPFQEGLRTFDQLDAISSLPTPSDIFVSYSTFPGFVSWRDPKSGSWYVETLDDIFEQWAHSEDLQSLLLRVANAVSVKGIYKQMPGCFNFLRKKLFFKTS |  | did not induce apoptotic changes | 
5 | Yama: ICE/Ced-3 family cysteine protease; p17 and p12 subunits derived from a 32 kDa proenzyme (protein) MENTENSVDSKSIKNLEPKIIHGSESMDSGISLDNSYKMDYPEMGLCIIINNKNFHKSTGMTSRSGTDVDAANLRETFRNLKYEVRNKNDLTREEIVELMRDVSKEDHSKRSSFVCVLLSHGEEGIIFGTNGPVDLKKITNFFRGDRCRSLTGKPKLFIIQACRGTELDCGIETDSGVDDDMACHKIPVEADFLYAYSTAPGYYSWRNSKDGSWFIQSLCAMLKQYADKLEFMHILTRVNRKVATEFESFSFDATFHAKKQIPCIVSMLTKELYFYHHHHHHH | active |  | 
